The values that follow come from patent US20250353917A1 (SYSTIMMUNE, published 2025).

Changes are numbered by the printed parent chain.

The target of experiment [1] is T1, soluble recombinant extracellular domain of human EGFR (human, UniProt P00533 25-645).
T1 construct: extracellular domain
As to the kind of experiment: BLI (Octet), mAb on AHC sensors, soluble EGFR extracellular domain. (In BLI a coated tip is dipped into the sample, and binding shifts an interference pattern.)
Description: (§1) Fc-containing protein was captured to anti-human Fc (AHC) sensor tips by loading for 180 seconds at 10 μg/ml. Alternatively, His-tagged proteins were covalently coupled at 10 ug/ml to AR2G tips using manufacturer protocol. After a 60-second baseline step, a 180- to 300-second association phase with serial dilutions (0-200 nM; 1:2.5 dilution factor) or a single 100 nM concentration of purified human EGFR in assay buffer (phosphate-buffered saline containing 0.1% BSA, 0.05% Tween20) was performed, followed by a 300- to 600—second dissociation phase in assay buffer. Regeneration was achieved using 10 mM glycine, pH 1.5. Binding curves were globally fit to a 1:1 model to extract the dissociation constants, KD. Binding kinetics for each protein were assessed in duplicate, with tabulated values reported as average±standard deviation.

Experiment [2] deals with T1, soluble recombinant extracellular …. As to the kind of experiment: BLI (Octet), scFv-monoFc on AHC sensors, serial dilutions of EGFR extracellular domain.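 Note: EGFR analyte titrated 0 to 200 nM, association 180–300 s then dissociation 300–600 s in PBS with 0.1% BSA and 0.05% Tween20, global 1:1 fit, duplicate means.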
Description: as §1
(§2) The monoFc domain was used to load proteins onto anti-human Fc (AHC) sensors, followed by binding of scFv to serial dilutions of the extracellular domain of human EGFR.
The target is the same in experiment [3]. As to the kind of experiment: BLI of scFv-monoFc proteins, against wild-type cetuximab scFv-monoFc.
Description: as §1, §2

B1: SI-79C3 (antibody, human IgG1, kappa, V domains shown)
VH: QVQLQQSGPGLVKPSETLSITCTVSGFSLTNYGVHWIRQAPGKGLEWLGVIWSGGNTDYNTPFTSRFTITKDNSKNQVYFKLRSVRADDTAIYYCARALTYYDYEFAYWGQGTLVTVSS
VL: EIVLTQSPSTLSVSPGERATFSCRASQSIGTNIHWYQQKPGKPPRLLIKYASESISGIPDRFSGSGSGTEFTLTISSVQSEDFAVYYCQQNNNWPTTFGPGTKLTVLR
notes: Humanized version H7 in IgG format; also called H7; humanized H7 mAb
In the case of B1, in experiment [1], the Kd came to 2.41 nM, the koff was found to be 0.000812 s⁻¹ and the on-rate (kon) was 337000 M⁻¹ s⁻¹.

B2: SI-79SF9 (Fc fusion)
chain: EIVLTQSPSTLSVSPGERVSFSCRASQSIGTNIHWYQQRTGQPPRLLIKYASESISGIPARFSGSGSGTEFTLTITSVQSEDFAVYYCQQNNNWPTTFGQGTKLDIKGGGGSGGGGSGGGGSGGGGSQVQLLQSGPGLVKPSETLSITCTVSGFSLTNYGVHWIRQAPGKGLEWIGVIWSGGNTDYNTPFTSRFTITKDNSKNQVFFKLRSVRAEDTALYYCARALTYYDYEFAYWGQGTLVTVSSGSGGSPVAGPSVFLFPPKPKDTLMISRTPEVTCVVVDVSHEDPEVKFNWYVDGVEVHNAKTKPREEQYASTYRVVSVLTVLHQDWLNGKEYKCKVSNKALPAPIEKTISKAKGQPREPQVYTLPPSRDELTKNQVSLRCHVKGFYPSDIAVEWESNGQPENNYKTTKPVLDSDGSFFLYSTLTVDKSRWQQGNVFSCSVLHEALHNHYTQKSLSLSPGK
notes: also called H6; H6 scFv-monoFc
Take B2: in experiment [2], the Kd worked out at 3.42 nM, the koff was determined as 0.00165 s⁻¹ and the kon was 476000 M⁻¹ s⁻¹.

B3: SI-79SF8 (Fc fusion)
chain: DIVLTQSPATLSVSPGERATLSCRASQSIGTNIHWYQQKPGQAPRLLIKYASESISGIPSRFSGSGSGTDFTLTISSVQSEDFAVYYCQQNNNWPTTFGQGTKLEIKGGGGSGGGGSGGGGSGGGGSQVQLQESGPGLVKPSESLSLTCTVSGFSLTNYGVHWVRQPPGKGLEWIGVIWSGGNTDYNTPFTSRVTISKDNSKNQVSLKMNSLTAADTAVYYCARALTYYDYEFAYWGQGTLVTVSSGSGGSPVAGPSVFLFPPKPKDTLMISRTPEVTCVVVDVSHEDPEVKFNWYVDGVEVHNAKTKPREEQYASTYRVVSVLTVLHQDWLNGKEYKCKVSNKALPAPIEKTISKAKGQPREPQVYTLPPSRDELTKNQVSLRCHVKGFYPSDIAVEWESNGQPENNYKTTKPVLDSDGSFFLYSTLTVDKSRWQQGNVFSCSVLHEALHNHYTQKSLSLSPGK
notes: also called H10; H10 scFv-monoFc
Regarding B3, the “fold decrease in binding affinity” value in experiment [3] was 2 fold. In experiment [2], the dissociation constant Kd worked out at 6.77 nM, the koff was 0.00458 s⁻¹ and the kon was found to be 665000 M⁻¹ s⁻¹.

B4: SI-79SF13 (Fc fusion)
chain: B3 chain with E105T, I106V, K107L
notes: also called H11; H11 scFv-monoFc
Take B4: in experiment [3], the “fold decrease in binding affinity” value turned out to be 2 fold. For the same molecule, in experiment [2], the Kd was 6.74 nM, the koff is 0.00454 s⁻¹ and the on-rate constant (kon) turned out to be 661000 M⁻¹ s⁻¹.

B5: SI-79SF3 (Fc fusion)
chain: EIVMTQSPSTLSASVGDRVIITCRASQSIGTNIHWYQQKPGKAPKLLIYYASESISGIPSRFSGSGSGAEFTLTISSLQPDDFATYYCQQNNNWPTTFGQGTKLTVLGGGGSGGGGSGGGGSGGGGSEVQLVESGGGLVQPGGSLRLSCKVSGFSLTNYGVHWVRQAPGKGLEWVGVIWSGGNTDYNTPFTSRFTISRDTSKNTVYLQMNSLRAEDTAVYYCARALTYYDYEFAYWGQGTLVTVSSGSGGSPVAGPSVFLFPPKPKDTLMISRTPEVTCVVVDVSHEDPEVKFNWYVDGVEVHNAKTKPREEQYASTYRVVSVLTVLHQDWLNGKEYKCKVSNKALPAPIEKTISKAKGQPREPQVYTLPPSRDELTKNQVSLRCHVKGFYPSDIAVEWESNGQPENNYKTTKPVLDSDGSFFLYSTLTVDKSRWQQGNVFSCSVLHEALHNHYTQKSLSLSPGK
notes: also called H1; H1 scFv-monoFc
B5: the “fold decrease in binding affinity” value in experiment [3] is 4 fold. In experiment [2], the Kd amounted to 13.1 nM, the koff worked out at 0.00927 s⁻¹ and the kon is 718000 M⁻¹ s⁻¹.

B6: SI-79SF5 (Fc fusion)
chain: DIVLTQSPSSLSVSPGERVTISCRASQSIGTNIHWYQQKPGQAPRLLIKYASESISGIPSRFSGSGSGTDFTLTISSVESEDFAVYYCQQNNNWPTTFGQGTKLEIKGGGGSGGGGSGGGGSGGGGSQVQLVESGPGLVQPSGSLSLTCTVSGFSLTNYGVHWVRQAPGKGLEWVGVIWSGGNTDYNTPFTSRFTISKDNSKNQVYLKMNSLRAEDTAVYYCARALTYYDYEFAYWGQGTLVTVSSGSGGSPVAGPSVFLFPPKPKDTLMISRTPEVTCVVVDVSHEDPEVKFNWYVDGVEVHNAKTKPREEQYASTYRVVSVLTVLHQDWLNGKEYKCKVSNKALPAPIEKTISKAKGQPREPQVYTLPPSRDELTKNQVSLRCHVKGFYPSDIAVEWESNGQPENNYKTTKPVLDSDGSFFLYSTLTVDKSRWQQGNVFSCSVLHEALHNHYTQKSLSLSPGK
notes: also called H8; H8 scFv-monoFc
For B6, in experiment [3], the “fold decrease in binding affinity” value came out at 2 fold. For the same molecule, in experiment [2], the Kd amounted to 6.79 nM, the koff is 0.00393 s⁻¹ and the kon amounted to 571000 M⁻¹ s⁻¹.

B7: SI-79SF7 (Fc fusion)
chain: B6 chain with E105T, I106V, K107L
notes: also called H9; H9 scFv-monoFc
Consider B7, for which, in experiment [3], the “fold decrease in binding affinity” value stood at 2 fold. For the same molecule, in experiment [2], the Kd turned out to be 6.92 nM, the koff came to 0.00395 s⁻¹ and the kon was 563000 M⁻¹ s⁻¹.

For orientation: Kd means the concentration at which binding is half-saturated. By koff is commonly meant a measure of how fast the partners let go of each other. A word on the kon: it is the second-order rate constant of association.
